Assays:
[1] = target: CCR5 (human) (UniProt P51681); test: flow cytometry competition on CD8+ T cells of human PBMC; 5P12-RANTES at 0.8 ng/ml or less; competitor antibody 2D7
[2] = target: CCR5 (human) (UniProt P51681); test: flow cytometry competition on CD8+ T cells of human PBMC; 5P12-RANTES at 100 ng/ml or greater; competitor antibody 2D7

Sequence of UniProt P51681 (P51681 whole entry): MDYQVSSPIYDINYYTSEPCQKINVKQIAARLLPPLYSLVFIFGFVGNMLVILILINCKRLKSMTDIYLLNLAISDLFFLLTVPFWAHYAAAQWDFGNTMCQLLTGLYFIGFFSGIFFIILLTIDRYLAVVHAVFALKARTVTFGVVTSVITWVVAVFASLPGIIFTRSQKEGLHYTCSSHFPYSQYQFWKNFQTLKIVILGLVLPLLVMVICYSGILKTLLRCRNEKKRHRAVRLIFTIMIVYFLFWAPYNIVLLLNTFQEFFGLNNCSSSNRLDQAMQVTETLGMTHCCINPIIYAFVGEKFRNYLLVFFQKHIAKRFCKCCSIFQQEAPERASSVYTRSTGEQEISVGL

- 2D7% binding [1]: 20%
- 2D7% binding [2]: < 1%
Substance: 5P12-RANTES (ligand)
